The values below come from patent US20200270570A1.

Test [1] has as its target T1, mouse Fz8 (mouse) (UniProt Q61091).
T1 sequence (looked up): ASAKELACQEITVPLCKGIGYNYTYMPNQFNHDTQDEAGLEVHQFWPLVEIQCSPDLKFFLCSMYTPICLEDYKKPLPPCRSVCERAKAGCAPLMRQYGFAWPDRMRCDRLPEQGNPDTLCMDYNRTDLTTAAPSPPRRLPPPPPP
As to the kind of experiment: FIG. 12A: preformed L-Wnt3A incubated with Fz8 (longer time course), ultracentrifugation, immunoblot. (Immunoblotting shows a protein as a band on a membrane.)

Test [2] deals with T1, mouse Fz8 (mouse). As to the kind of experiment: FIG. 11A: preformed L-Wnt3A incubated with Fz8 6 h RT, ultracentrifugation, western blot.
Test [3] concerns the target T1, mouse Fz8 (mouse). Put plainly: FIG. 12A: L-Wnt3A incubated with Fz8 for 12 h RT, ultracentrifugation, western blot.
The target in test [4] is L-Wnt3A (Wnt3A reconstituted into liposomes) (human) (UniProt P56704). As to the kind of experiment: FIG. 12A: preformed L-Wnt3A incubated with Fz8 (longer time course), ultracentrifugation, immunoblot.
UniProt P56704, sequence (P56704 19-352 limits assumed): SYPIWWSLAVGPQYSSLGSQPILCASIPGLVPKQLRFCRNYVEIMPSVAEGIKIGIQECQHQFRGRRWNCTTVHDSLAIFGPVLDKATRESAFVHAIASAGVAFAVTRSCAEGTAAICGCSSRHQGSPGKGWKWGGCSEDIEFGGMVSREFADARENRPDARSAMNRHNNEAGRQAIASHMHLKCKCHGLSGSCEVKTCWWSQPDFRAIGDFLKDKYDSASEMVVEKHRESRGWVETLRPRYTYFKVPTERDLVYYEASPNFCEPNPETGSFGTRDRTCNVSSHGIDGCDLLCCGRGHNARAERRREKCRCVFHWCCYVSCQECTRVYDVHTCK
Test [5] has the same target. Put plainly: FIG. 11A: preformed L-Wnt3A incubated with Fz8 6 h RT, ultracentrifugation, immunoblot.

With “L-Wnt3A (Wnt3A reconstituted into liposomes) (from UniProt P56704 19-352)”, the values for the percent of Wnt3A in liposomal pellet (not with Fz8) in the test with mouse Fz8 (mouse) [1] and with mouse Fz8 (mouse) [2] were 88.7% and 100%, respectively. Also, the percent of Wnt3A in Fz8 rich supernatant in the test with mouse Fz8 (mouse) [3] came to 11%.
As to “mouse Fz8 (from UniProt Q61091 28-173) (receptor)”, the figures for the percent of Fz8 in supernatant (not liposome-associated) in test [4] and in test [5] were 94.5% and 98.6%, respectively.
